Assay results taken from article PMC5599508.

Tests used:
[1] = target: free alpha/beta-tubulin dimers from porcine brain (pig (purified from porcine brain)) (UniProt P02550)
[2] = target: T15 peptide derived from the human α-tubulin αK40 loop (human)
[3] = target: T9 peptide derived from the human α-tubulin αK40 loop (human)

Chain of UniProt P02550 (P02550 whole entry, chain 1 of 2): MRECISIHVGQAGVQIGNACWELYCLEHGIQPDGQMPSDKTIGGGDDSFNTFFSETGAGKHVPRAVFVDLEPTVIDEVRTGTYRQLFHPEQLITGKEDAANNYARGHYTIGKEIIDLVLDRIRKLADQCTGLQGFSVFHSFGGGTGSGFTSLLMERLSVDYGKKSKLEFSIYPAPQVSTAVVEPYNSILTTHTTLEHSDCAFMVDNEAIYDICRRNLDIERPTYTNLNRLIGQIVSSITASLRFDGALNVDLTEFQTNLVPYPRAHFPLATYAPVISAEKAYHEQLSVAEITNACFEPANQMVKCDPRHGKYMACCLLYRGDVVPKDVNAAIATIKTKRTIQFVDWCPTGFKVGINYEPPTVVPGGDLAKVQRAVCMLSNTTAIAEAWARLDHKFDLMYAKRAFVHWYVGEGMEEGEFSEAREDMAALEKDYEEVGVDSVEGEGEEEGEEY
Chain of UniProt P02550 (P02554 whole entry, chain 2 of 2, further chain): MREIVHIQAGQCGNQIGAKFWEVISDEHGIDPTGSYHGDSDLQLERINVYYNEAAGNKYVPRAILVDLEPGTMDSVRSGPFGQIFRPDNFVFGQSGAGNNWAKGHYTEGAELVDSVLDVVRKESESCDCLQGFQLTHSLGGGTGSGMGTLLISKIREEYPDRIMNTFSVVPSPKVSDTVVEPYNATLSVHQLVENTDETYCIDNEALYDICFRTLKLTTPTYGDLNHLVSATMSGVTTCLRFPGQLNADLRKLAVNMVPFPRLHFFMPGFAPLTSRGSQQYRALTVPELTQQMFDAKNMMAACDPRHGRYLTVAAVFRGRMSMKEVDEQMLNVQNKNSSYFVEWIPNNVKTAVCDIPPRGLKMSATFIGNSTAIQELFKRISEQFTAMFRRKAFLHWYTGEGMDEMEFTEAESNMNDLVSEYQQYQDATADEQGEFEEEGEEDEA

- KM of the deacetylation of free tubulin dimers by HDAC6 (steady-state kinetics, Western blot quantification) [1]: 0.23 µM
- KM of the deacetylation of the acetylated αK40-derived peptide by HDAC6 (HPLC-based assay) [2]: 328 µM
- KM of the deacetylation of the acetylated αK40-derived peptide by HDAC6 (HPLC-based assay) [3]: 88 µM
Substance: untagged full-length human histone deacetylase 6 (from UniProt Q9UBN7-1 1-1215) (enzyme)
